For 1 substance, Ki results are on record in article PMC4564177.

What all share (test): fluorescence polarisation; competition set-up: constant concentration of isolated PSD95 PDZ domain and Cy5-labeled reference ligand titrated with the unlabeled CRHR1 peptide
In general terms: Polarisation of emitted light reports the rotation of a fluorescent probe.

The target in assay [1] is isolated PDZ1 domain of PSD95 (UniProt P78352).
Assay [2] addresses isolated PDZ1-2 tandem of PSD95 (UniProt P78352).
Assay [3] addresses isolated PDZ2 domain of PSD95 (UniProt P78352).
The target of assay [4] is isolated PDZ3 domain of PSD95 (UniProt P78352).
Chain of isolated PDZ3 domain of PSD95 (P78352 whole entry, the tested form may be a part): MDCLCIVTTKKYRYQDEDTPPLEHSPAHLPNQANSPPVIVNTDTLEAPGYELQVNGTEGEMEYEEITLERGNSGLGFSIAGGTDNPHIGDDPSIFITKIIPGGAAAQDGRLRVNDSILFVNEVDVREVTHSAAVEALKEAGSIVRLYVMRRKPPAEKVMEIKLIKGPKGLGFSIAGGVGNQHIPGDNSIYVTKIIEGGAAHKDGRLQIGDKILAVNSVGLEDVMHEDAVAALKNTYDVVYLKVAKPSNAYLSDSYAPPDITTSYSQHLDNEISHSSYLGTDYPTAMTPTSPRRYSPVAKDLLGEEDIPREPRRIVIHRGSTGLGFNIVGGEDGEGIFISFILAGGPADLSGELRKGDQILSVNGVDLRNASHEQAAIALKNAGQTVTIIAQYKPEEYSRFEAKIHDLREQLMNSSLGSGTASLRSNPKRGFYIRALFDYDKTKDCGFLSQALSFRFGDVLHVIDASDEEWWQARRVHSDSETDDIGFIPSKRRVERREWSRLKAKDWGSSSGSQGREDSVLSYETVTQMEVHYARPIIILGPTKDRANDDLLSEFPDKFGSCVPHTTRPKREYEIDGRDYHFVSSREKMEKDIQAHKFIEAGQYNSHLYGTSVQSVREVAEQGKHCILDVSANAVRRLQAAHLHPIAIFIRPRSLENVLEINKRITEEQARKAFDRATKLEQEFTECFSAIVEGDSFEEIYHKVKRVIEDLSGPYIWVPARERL

Chain of C-terminal 10 amino acids of CRHR1 (unlabeled CRHR1 peptide) (P35347 whole entry, looked up, tested part not stated): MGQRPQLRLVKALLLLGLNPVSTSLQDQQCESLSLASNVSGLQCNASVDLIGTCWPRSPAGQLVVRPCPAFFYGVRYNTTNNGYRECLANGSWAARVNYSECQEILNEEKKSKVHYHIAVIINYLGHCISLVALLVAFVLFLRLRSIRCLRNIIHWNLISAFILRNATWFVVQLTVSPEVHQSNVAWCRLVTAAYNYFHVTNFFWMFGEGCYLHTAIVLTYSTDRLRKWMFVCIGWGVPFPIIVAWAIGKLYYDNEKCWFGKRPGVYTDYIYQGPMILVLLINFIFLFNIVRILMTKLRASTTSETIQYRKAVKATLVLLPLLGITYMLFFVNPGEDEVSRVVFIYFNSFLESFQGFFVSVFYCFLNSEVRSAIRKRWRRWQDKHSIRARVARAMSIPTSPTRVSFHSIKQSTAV
Chain of isolated PDZ1-2 tandem of PSD95 (P78352 whole entry, the tested form may be a part): as the sequence (P78352 whole entry, the tested form may be a part) above
Chain of isolated PDZ2 domain of PSD95 (P78352 whole entry, the tested form may be a part): as above
Chain of isolated PDZ1 domain of PSD95 (P78352 whole entry, the tested form may be a part): as above

With “C-terminal 10 amino acids of CRHR1 (unlabeled CRHR1 peptide) (from UniProt P35347 406-415)”, the Ki in assay [1] turned out to be 77 µM; in assay [2], 24 µM; in assay [3], 19 µM; in assay [4], 48 µM.

Usually Ki stands for a measure of affinity in units of concentration, obtained from inhibition or displacement. A high value points to a looser hold on the target.
